# Source: patent US20150079113A1 (MIT, published 2015)
# B1: Purified His-tagged LERER repeat protein (His-LERER) (other, mouse, UniProt Q03173 175-252, looked up)
# chain: LERERMERERLERERLERERLERERLEQEQLERQRQEREHVERLERERLERLERERQERERERLEQLEREQVEWERER
# notes: domain: LERER repeat; Expressed and purified from E. coli (pQE80L-His-LERER); also called LERER repeat region of Mena; not shown: His tag of the pQE80L vector
# B2: GFP-MenaΔLERER (other, UniProt Q03173-3 1-541, looked up)
# chain: MSEQSICQARAAVMVYDDANKKWVPAGGSTGFSRVHIYHHTGNNTFRVVGRKIQDHQVVINCAIPKGLKYNQATQTFHQWRDARQVYGLNFGSKEDANVFASAMMHALEVLNSQEAGPTLPRQNSQLPAQVQNGPSQEELEIQRRQLQEQQRQKERMSNAAAPASAETPLNPELGDSSASEPGLQAASQPAESPTPQGLVLGPPAPPPPPPLPSGPAYASALPPPPGPPPPPPLPSTGPPPPPPPPPPLPNQAPPPPPPPPAPPLPASGIFSGSTSEDNRPLTGLAAAIAGAKLRKVSRVEDGSFPGGGNTGSVSLASSKADAGRGNGPLPLGGSGLMEEMSALLARRRRIAEKGSTIETEQKEDRNEDAEPITAKAPSTSTPEPTRKPWERTNTMNGSKSPVISRPKSTPSSQPSANGVQTEGLDYDRLKQDILDEMRKELAKLKEELIDAIRQELSKSNTA
# notes: Expressed in MVD7 cells; also called Mena mutant lacking the LERER repeat; not shown: GFP tag
# B3: GFP-tagged EVH1 domain of Mena (other, UniProt Q03173 1-112, looked up)
# chain: MSEQSICQARAAVMVYDDANKKWVPAGGSTGFSRVHIYHHTGNNTFRVVGRKIQDHQVVINCAIPKGLKYNQATQTFHQWRDARQVYGLNFGSKEDANVFASAMMHALEVLN
# notes: domain: EVH1 domain; not shown: GFP tag
# B4: β1 integrin (endogenous) (receptor, mouse, UniProt P09055 21-798, looked up)
# chain: QTDKNRCLKANAKSCGECIQAGPNCGWCTNTTFLQEGMPTSARCDDLEALKKKGCQPSDIENPRGSQTIKKNKNVTNRSKGMAEKLRPEDITQIQPQQLLLKLRSGEPQKFTLKFKRAEDYPIDLYYLMDLSYSMKDDLENVKSLGTDLMNEMRRITSDFRIGFGSFVEKTVMPYISTTPAKLRNPCTSEQNCTSPFSYKNVLSLTDRGEFFNELVGQQRISGNLDSPEGGFDAIMQVAVCGSLIGWRNVTRLLVFSTDAGFHFAGDGKLGGIVLPNDGQCHLENNVYTMSHYYDYPSIAHLVQKLSENNIQTIFAVTEEFQPVYKELKNLIPKSAVGTLSGNSSNVIQLIIDAYNSLSSEVILENSKLPDGVTINYKSYCKNGVNGTGENGRKCSNISIGDEVQFEISITANKCPNKESETIKIKPLGFTEEVEVVLQFICKCNCQSHGIPASPKCHEGNGTFECGACRCNEGRVGRHCECSTDEVNSEDMDAYCRKENSSEICSNNGECVCGQCVCRKRDNTNEIYSGKFCECDNFNCDRSNGLICGGNGVCRCRVCECYPNYTGSACDCSLDTGPCLASNGQICNGRGICECGACKCTDPKFQGPTCETCQTCLGVCAEHKECVQCRAFNKGEKKDTCAQECSHFNLTKVESREKLPQPVQVDPVTHCKEKDIDDCWFYFTYSVNGNNEAIVHVVETPDCPTGPDIIPIVAGVVAGIVLIGLALLLIWKLLMIIHDRREFAKFEKEKMNAKWDTGENPIYKSAVTTVVNPKYEGK
# notes: whole, on cells
# B5: α5 integrin (endogenous) (receptor, mouse, UniProt P11688 45-1053, looked up)
# chain: FNLDAEAPAVLSGPPGSLFGFSVEFYRPGRDGVSVLVGAPKANTSQPGVLQGGAVYVCPWGTSPIQCTTIQFDSKGSRILESSLYSAKGEEPVEYKSLQWFGATVRAHGSSILACAPLYSWRTEKDPQNDPVGTCYLSTENFTRILEYAPCRSDFGSAAGQGYCQGGFSAEFTKTGRVVLGGPGSYFWQGQILSATQEQISESYYPEYLINPVQGQLQTRQASSVYDDSYLGYSVAVGEFSGDDTEDFVAGVPKGNLTYGYVTVLNGSDIHSLYNVSGEQMASYFGYAVAATDTNGDGLDDLLVGAPLLMERTADGRPQEVGRVYIYLQRPAGIDPTPTLTLTGQDEFSRFGSSLTPLGDLDQDGYNDVAIGAPFGGEAQQGVVFIFPGGPGGLSTKPSQVLQPLWAAGRTPDFFGSALRGGRDLDGNGYPDLIVGSFGVDKALVYRGRPIISASASLTIFPSMFNPEERSCSLEGNPVSCINLSFCLNASGKHVPNSIGFEVELQLDWQKQKGGVRRALFLTSKQATLTQTLLIQNGAREDCREMKIYLRNESEFRDKLSPIHIALNFSLDPKAPMDSHGLRPVLHYQSKSRIEDKAQILLDCGEDNICVPDLQLDVYGEKKHVYLGDKNALNLTFHAQNLGEGGAYEAELRVTAPLEAEYSGLVRHPGNFSSLSCDYFAVNQSRQLVCDLGNPMKAGTSLWGGLRFTVPHLQDTKKTIQFDFQILSKNLNNSQSNVVSFPLSVEAQAQVSLNGVSKPEAVIFPVSDWNPQDQPQKEEDLGPAVHHVYELINQGPSSISQGVLELSCPQALEGQQLLYVTKVTGLSNCTSNYTPNSQGLELDPETSPHHLQKREAPGRSSTASGTQVLKCPEAKCFRLRCEFGPLHRQESRSLQLHFRVWAKTFLQREYQPFSLQCEAVYEALKMPYQILPRQLPQKKLQVATAVQWTKAEGSNGVPLWIIILAILFGLLLLGLLIYVLYKLGFFKRSLPYGTAMEKAQLKPPATSDA
# notes: whole, on cells; Present in cells as the α5β1 heterodimer; detected by immunofluorescence or immunoprecipitated from lysates; also called endogenous α5; alpha5 integrin
# How the values were obtained:
# [1] = biological target: T1, Purified GST (UniProt P08515 1-218 = GST); experiment: GST pull-down with purified proteins, western blot with anti-His
# T1 construct: Control bait in the pull-down assay
# Method: After incubation, GST- and GST-α5 beads containing the His-LERER bound fraction were recovered and analyzed by western blotting along with aliquots of unbound protein from the supernatant.
# Binding Assays: GST-α5 integrin constructs and His-tagged variants of the LERER repeat region were expressed and purified from E. Coli. 10 nM α5 integrin cytoplasmic tail was immobilized on Glutathione beads and incubated for 1 hour, 4° C. with 200 nM His-LERER variants at constant agitation in PBS with 0.1% TritonX-100 and 2 mM βME. Beads were washed three times, and proteins were eluted in sample buffer, and assayed by western blot.
# [2] = biological target: B5; experiment: cell-based or functional assay
# [3] = biological target: B5; experiment: recruitment of α5 to mitochondria in cells expressing FP4-Mito, immunofluorescence
# Method: Microscopy—Cells were fixed in 4% paraformaldehyde in PHEM buffer warmed to 37° C. for 20 minutes. Cells were permeabilized in 0.2% TX-100 and blocked in 10% Donkey Serum. […] (Abcam ab25247), integrin αv [RMV-7] (Abcam ab63490), integrin α6 [GoH3] […] F-actin was stained with AlexaFluor Phalloidin (Invitrogen). Z series of images were taken on an Olympus microscope with a 60× plan apo objective. Images were deconvolved using Deltavision Softworx software.
# [4] = biological target: B5; experiment: recruitment to mitochondria in cells expressing FP4-Mito, immunofluorescence
# Method: Microscopy—Cells were fixed in 4% paraformaldehyde in PHEM buffer warmed to 37° C. for 20 minutes. Cells were permeabilized in 0.2% TX-100 and blocked in 10% Donkey Serum. […] (Abcam ab25247), integrin αv [RMV-7] (Abcam ab63490), integrin α6 [GoH3] […] F-actin was stained with AlexaFluor Phalloidin (Invitrogen).
# [5] = biological target: p34 subunit of Arp2/3 (endogenous) (UniProt Q9CVB6 1-300); experiment: α5 immunoprecipitation from NIH3T3 cell lysates, western blot
# From the text: To determine if endogenously expressed Mena and α5 integrin form complexes within cells, α5 integrin was immunoprecipitated from NIH3T3 cell lysates followed by Western blot analysis (FIG. 2B).
# Western Blotting/Immunoprecipitation. Standard procedures were used for protein electrophoresis, western blotting and immunoprecipitations. Western blots were developed using HRP secondary antibodies and ECL reagent (Amersham). […] Beads were washed three times in lysis buffer, and proteins were eluted in sample buffer.
# T1 sequence (P08515 whole entry): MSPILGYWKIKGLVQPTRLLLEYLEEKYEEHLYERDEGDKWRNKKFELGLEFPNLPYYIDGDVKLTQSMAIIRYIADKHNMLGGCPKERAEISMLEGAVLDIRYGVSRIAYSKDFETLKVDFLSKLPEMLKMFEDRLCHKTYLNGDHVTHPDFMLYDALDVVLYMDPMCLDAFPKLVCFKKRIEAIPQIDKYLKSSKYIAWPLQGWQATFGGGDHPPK
binder,measurement,setting,value
B1,binding result,[1],no binding (tested: 200 nM His-LERER variants)
B2,"t1/2 of fluorescence recovery (FRAP) in nascent, peripheral adhesions, cells plated for 30 minutes on FN",[2],11.9 s
same,binding result,[3],no binding
B3,binding result,[3],no binding
B4,binding result,[4],binds
B5,binding result,[5],no binding
